From the nanobody polyreactivity screen of Harvey et al. (2022)

test: yeast display, Sf9 membrane polyspecificity reagent, FACS + sequencing; frameworks hold sequencing errors
Outline: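 In a synthetic yeast display library (Saccharomyces cerevisiae BJ5465), nanobody expression was induced with galactose for 36–48 hours. FACS gates were set low and high (top ~1%) using anti-HA fluorescence for expression and streptavidin fluorescence for binding of the Sf9 membrane reagent. Each polyreactivity label is drawn from the gate of origin.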

Question: With “QVQLVESGGGLVQAGGSLRLSCAASGRTFSYNTMGWYRQAPGKVSELVAAISTGVSTYYADSVKGRFTISRDNAKNTVYLQMNSLKPEDTEVYYCARGGRPRWYPPHNYWGQGTQLTVSS” as the sequence, how does the “polyreactivity (PSR sort gate)” value read?
Answer: low polyreactivity

Question: For “QVQLVESGGGLVQAGGSLRLSCAASGSTFWFYAMRWYRQAPGKERELVAAITRSAGSTYYADSVKGRFTISRDNAKNTVYLQMNSLKPEDTAVYYCAAQRESLYGGFDYWGQGTQVTVSS”, which “polyreactivity (PSR sort gate)” value is on record?
Answer: low polyreactivity

Question: Which “polyreactivity (PSR sort gate)” value does the source give for “QVQLVESGGGLVQAGGSLRLSCAASGSIFRYYAMGWYRQAPGKERELVAAINSRGGTTYYADSVKGRFTISRDNAKNTVYLQMNSLKPEDTAVYYCAAGYPPLHTSVQQTAHYGLDYWGQGTQVTVSS” here?
Answer: high polyreactivity

Question: With “QVQLVESGGGLVQAGGSLRLSCAASGSIFGFNTMGWYRQAPGKERELVATINWSGGSTYYADSVKGRFTISRDNAKNTVYLQMNSLKPEDTAVYYCNAGPFSGRLFTTYASRGRYDYWGQGTQVTVSS” as the sequence, how does the “polyreactivity (PSR sort gate)” value read?
Answer: low polyreactivity

Question: Which “polyreactivity (PSR sort gate)” value does the source give for “QVQLVESGGGLVQAGGSLRLSCAASGFTFYGYAMGWYRQAPGKERELVATIRRSTGSTYYADSVKGRFTISRDNAKNTVYLQMNSLKPEDTAVYYCATRVWFPITSYDYWGQGTQVTVSS” here?
Answer: low polyreactivity

Question: Which “polyreactivity (PSR sort gate)” value does the source give for “QVQLVESGGGLVQAGGSLRLICAASGRIFVYYAMGWYRQAPGKERELVAAISSGGSTYYADSVKGRFTISRDNAKNTVYLQMNSLKPEDTAVYYCAADPQRGRRIGYYWGQGTQVTVSS” here?
Answer: low polyreactivity

Question: With “QVQLVESGGGLVQAGGSLRLSCAASGRIFLRYALGWYRQAPGKEREWVAVITWSGGSTNYADSVKGRFTISRDNAKNTVYLQMNSLKPEDTAVYYCAVDNTGRSWPYDYWGQGTQVTVSS” as the sequence, how does the “polyreactivity (PSR sort gate)” value read?
Answer: low polyreactivity

Question: Which “polyreactivity (PSR sort gate)” value does the source give for “QVQLLESGGGLVQAGGSLRLSCAASGFTLTRNAMGWYRQAPGKEREFVAAISWSGGSTYADSVKGRFTISRDNAKNTVFLQMNSLKPEDTAVYYCAADRYNGRYGYWGQGTQVTVSS” here?
Answer: high polyreactivity

Question: With “QDQLVESGGGLVQAGGSLRLSCAASGSIFPNYAMGWYRQAPGKERELVAAISSSGGRTYYADSVKGRFTISRDNAKNTVYLQMNSLKPEDTAVYYCAADTYTSAQHEKYDYWGQGTQVTVSS” as the sequence, how does the “polyreactivity (PSR sort gate)” value read?
Answer: low polyreactivity

Question: With “QVQLVESGGGLVQAGGSLRLSCAASGSIFWNNAMGWYRQAPGKERELVAGISGGSTNYADSVKGRFTISRDNAKNTVYLQMNSLKPEDTAVYYCATERQWESRFEAYDYWGQGTQVTVSS” as the sequence, how does the “polyreactivity (PSR sort gate)” value read?
Answer: low polyreactivity

Question: For “QVQLVESGGGLVQAGGSLRLSCAASGFIFVTYAMGWYRQAPGKERELVAAITNSGGTTYYADSVKGRFTISRDNAKNTVYLQMNSLKPEDTAVYYCNKPYGAETAHREFDYWGQGTQLTVSS”, which “polyreactivity (PSR sort gate)” value is on record?
Answer: low polyreactivity

Question: For “QVQHVESGGGLVQAGGSLRLSCAASGFTFARYAMGWYRHAPGKERELVASISSSGDRTNYADSVKGRFTISRDNAKITVYLQMYSLKPEDTAVYYCNADFGYGWYLRYDYWGQGTQVTVSS”, which “polyreactivity (PSR sort gate)” value is on record?
Answer: high polyreactivity

Question: For “QVQLVESGGGLVQAGGSLRLSCAASGSTFGGNAMGWYRQAPGKERELVASISDGGRTNYADSVKGRFTISRDNAKNTVYLQMNSLKPEDTAVYYCAADYAPVAFDYWGQGTQVTVSS”, which “polyreactivity (PSR sort gate)” value is on record?
Answer: low polyreactivity

Question: For “QVQLVESGGGLVQAGGSLRLSCAASGSTFVGYVMGWYRQAPGKERELVAAITRSGTSTYYADSVKGRFTISRDNAKNTVYLQMNSLKPEDTAVYYCALRYVSSDYYYWGQGTQVTVSS”, which “polyreactivity (PSR sort gate)” value is on record?
Answer: low polyreactivity

Question: With “QVQHVESGGGLVQAGVSLRLSCAASGSIFVYYAMGWYRQAPGKERELVASISESDGSTSYADSVKGRFTISRDNAMNTVYLQMNSLKPEDTAVSYCAADPYFYWYSPSFDYWGQGTQVTVSS” as the sequence, how does the “polyreactivity (PSR sort gate)” value read?
Answer: low polyreactivity

Question: With “QVQLVESGGGLVQAGGSLRLSCAASGFIFYDYDMGWYRQAPGKERELVAAITYSGGSTYYADSVKGRFTISRDNAKNTVYLQMNSLKPEDTAVYYCAAVKSRYAEAVDYYYWGQGTQVTVSS” as the sequence, how does the “polyreactivity (PSR sort gate)” value read?
Answer: low polyreactivity

Question: For “QVQLVESGGGLVQAGGSLRISCAASGGTFVPYAMGRSRQAPGKERELVARISKRGGTTYYADSVKGRFTISRDIGKNTVYLQMNSLKPEDTAVYYCAAVLPARGYYWGLGTQVTVSS”, which “polyreactivity (PSR sort gate)” value is on record?
Answer: high polyreactivity

Question: For “QVQIVESGGGLVQAGGSLRLSCAASGSIFGTYAMGWYRQAPGKERELVAAITRRGGSTFYADSVKGRFTISRDNAKNTVYLQMNSLKPEDTAVYDCAAPPYYWGQGTQVTVSS”, which “polyreactivity (PSR sort gate)” value is on record?
Answer: high polyreactivity

Question: With “QVQLVESGGGLVQAGGSLRLSCAASGSIFGLYAMGWYRQAPGKERELVAAITVSGGSTYYADSVKGRFTISRDNAKNTVYLQMNSLKPEDTAVYYCAARAGWPLYQYYYWGQGTQVTVSS” as the sequence, how does the “polyreactivity (PSR sort gate)” value read?
Answer: high polyreactivity

Question: With “QVQLVESGGGLVQAGGSLRLSCAASGSTFWGNAMGWYRQAPGKERELVAAISSRGGSTYYADSVKGRFTISRDNAKNTVYLQMNSLKPEDTAVYYCNTLQSSHGSSQYDSWGQGTQVTVSS” as the sequence, how does the “polyreactivity (PSR sort gate)” value read?
Answer: low polyreactivity

Question: With “QVQLVESGGGLVQAGGSLRLSCAASGSTFSNYAMGWYRQAPGKERELVASISNGGSTNYADSVKGRFTISRDNAMNTVYLQMNSLKPEDTSVYNCNAESKAKYDYWGQGTQVTVSS” as the sequence, how does the “polyreactivity (PSR sort gate)” value read?
Answer: low polyreactivity

Question: For “QVQLVESGGGLVQAGGSLRLSCSASGRIISFYVMGWYRQAPGKDRELVAAISLSGGSTYYADSVKGRFTISRDNAKNTVYLQMNSLKPEDTAVYYCAADQTLVGLPYNYWGQGTQLTVSS”, which “polyreactivity (PSR sort gate)” value is on record?
Answer: high polyreactivity

Question: For “QVQLVESGGGLVQAGGTLRLSCAASGRIFSKNAMGWYRQAPGKERELVAAMSSSGTSTYYADSVKGRFTISRDNAKNTVYLQINSLKPEDTAVYYCAARVSLTTYSYYSWGQGTQLTVSS”, which “polyreactivity (PSR sort gate)” value is on record?
Answer: high polyreactivity

Question: With “QVQLVESGGGLVQAGGSLRLSCAASGSIFYYNPMGWYRQAPGKERELVATISGRGGSTYYADSVKGRFTISRDNAKNTVYLQMNILKPEDTAVYYCNTVPSHHRHTKYDYWGQGTQVTVSS” as the sequence, how does the “polyreactivity (PSR sort gate)” value read?
Answer: low polyreactivity

Question: With “QVQLVESGGGLVQAGGSLRLSCAASGRTFRTNAMGWYRQEPGKERELVASITWRGDSTYYADSVKGRFTISRDNAKNTVYLQMNRLKPEDTAVYYCAAGGFYWGYLWGRYDYWGQGTQVTVSS” as the sequence, how does the “polyreactivity (PSR sort gate)” value read?
Answer: high polyreactivity

Question: With “QVQLVESGGGLVQAGGSLRLSCAASGRIFQGYAMGWYRPAPGKERELLAAITVRGGTTYYADSVKGRFTISRDNAKNTVYLQMNSLKPEDTAVYYCNAAKLIHGYQSVYPGSNSRYYYWGQGTQVTVSS” as the sequence, how does the “polyreactivity (PSR sort gate)” value read?
Answer: low polyreactivity

Question: With “QVQLVESGGGLVQAGGSLRLSCAASGRTSLGYDMGWYRPAPGQEGELVAAITRSGGSTYYADSVKGRFTISRDNAKNTVYLQMNSLKPEDTAVYYCNRVLPHPDGYGVGARGYWGKGTQVTVSS” as the sequence, how does the “polyreactivity (PSR sort gate)” value read?
Answer: high polyreactivity

Question: Which “polyreactivity (PSR sort gate)” value does the source give for “QVQLVESGRGKVQAGGSLRLSCAASGFTFRGNAMGWYRQAPGKERELVAAITSSGGRTYYADSVKGRFTISRDNAKNTVYLQMNSLKPEDTAVYYCAARYAYPSRYYYWGQGTQVTVSS” here?
Answer: high polyreactivity

Question: Which “polyreactivity (PSR sort gate)” value does the source give for “QVQLVESGGGLVQAGGSLRLSCAASGFIFDWNAMGWYRQAPGKERELVAAITWGGDGTFYADSVKGRFTISRDNAKNTVYLQMNSLKPEDTAVYYCAADSDSSFWWYYSWGQGTQVTVSS” here?
Answer: low polyreactivity

Question: With “QDQLVESGGGLVQAGGSLRLSCAASGSTLRRYAMGWYRQAPGKERELVAAISGSGDSTYYADSVKGRFTISRDNAKNTVYLQMNSLKPEDTAVYYCNAVYAFNGYDYWGQGTQVTVSS” as the sequence, how does the “polyreactivity (PSR sort gate)” value read?
Answer: low polyreactivity

Question: With “QVQLVESGVGLVQAGGSLRLSCAASGIIFTSNTMGWYRPAPGKEREFVASINWNGSSTYADSVKGRFTISRDNAKNTVYLQMNSLKPEDTAVYYCNADYKRNSVQFSLYDYWGQGTQVTVSS” as the sequence, how does the “polyreactivity (PSR sort gate)” value read?
Answer: low polyreactivity

Question: Which “polyreactivity (PSR sort gate)” value does the source give for “QVQHVESGRGLVQAGGSLRLSCDASGFTFRSYPIGWYRHAPGKERELVAGITWRGGRTYYADSVKGRFTISRDNAKNTVYLQMNSLKPEDTAVYNCAKLYRYIYGGMDYWGQGTQVTVSS” here?
Answer: high polyreactivity

Question: For “QDQLVESGGGLVQAGGSLRLSCAASGFIFGLYAMGWYRQAPGKERELVAAISSGGSTYYADSVKGRFTISRDNAKNTVYLQMNSLKPEDTAVYYCAAYYVYSEYDYWGQGTQVTVSS”, which “polyreactivity (PSR sort gate)” value is on record?
Answer: high polyreactivity

Question: Which “polyreactivity (PSR sort gate)” value does the source give for “QVQLVESGGGLVQAGGSLRLSCAASGRNFPLNGMGWYRQAPGKERELVAAISYRGGSTYYADSVKGRFTISRDNPKNTVYLQMNSLKPEDTAVYYCAADYVSRRYYYWGQGTQVTVSS” here?
Answer: high polyreactivity

Question: With “QDQLVASGGGLVQAGGSSRLSCAASGRTFWSNAMGWYRQAPGKERELVAVITSSGGRTYYADSVKGRFTISRDNAKNTVYLQMNSLKPEDTAVYYCNVVCSPSLGVRTKYGYWGQGTHVTVSS” as the sequence, how does the “polyreactivity (PSR sort gate)” value read?
Answer: high polyreactivity

Question: With “QVQLVESGGGLVQAGGSLRLSCAASGGIFPFYAMGWYRQAPGKERELVAAISGIGDSTYYADSVKGRFTISRDNAKNTVYLQMNSLKPEDTAVYYCAREFSDGLSGKFDYWGQGTQVTVSS” as the sequence, how does the “polyreactivity (PSR sort gate)” value read?
Answer: low polyreactivity

Question: For “QVQHVESGGNLFKAGGSLRLSCAASGITFVYNAMGWYRPAPGKERELVDGITWSGSSTYYADSVKGRFTISRDNAKNTVYFHMNSLKPDDTAVYYCDAYLYDRTTRYTYYYWGQGTQVTVSS”, which “polyreactivity (PSR sort gate)” value is on record?
Answer: high polyreactivity

Question: Which “polyreactivity (PSR sort gate)” value does the source give for “QVQLEESGGGLVQAGGSLRLSCAASGFTIGVYAMGWYRQAPGKERELVAAISARGGSTYYADSVKGRFTISRDNAKKTVYLQMNSLKPEDTAVFYCAVVLKYVSADQMDYWGQGTQVTVSS” here?
Answer: high polyreactivity

Question: Which “polyreactivity (PSR sort gate)” value does the source give for “QVQLVESGGGLVQAGGRLRLSCAASGRTFDDYAMGWYRQAPGKERELVAVITSGGRTKYADSVKGRFTISRDNAKNTVYLQMNSLKPEDTAVYYCAAREVHDRYGYWGQGTQVTVSS” here?
Answer: high polyreactivity

Question: Which “polyreactivity (PSR sort gate)” value does the source give for “QVQLVESGGGLVQAGGSLRLSCAASGRIFGRYAMGWYRQAPGKERELVAAITSSGGSTYYADSVKGRFTISRDNAKNTVYLQMNSLKPEDTAVYYCAADSQYKYDYWGQGTQVTVSS” here?
Answer: high polyreactivity

Question: For “QVQLVESGGGLVQAGGSLRLSFAASGSIFIRNAMGWYRQAPGKERELVAAISIGDGSTYADSVKGRFTISRDNAKNSVYLQMNSLKPEDTAVYYCNAAGIVWRYYSYGYWGQGTQVTVSS”, which “polyreactivity (PSR sort gate)” value is on record?
Answer: low polyreactivity

Question: Which “polyreactivity (PSR sort gate)” value does the source give for “QVQLVESGGGLVQAGGSLRLSCAASGSIFKGYDMGWYRQAPGKERELVAAISSGSTNYADSVKGRFTISRDNAKNTVYLQMNSLKPEDTAVYYCNADLGRATFYQRVVIERGGYWGQGTQVTVSS” here?
Answer: low polyreactivity

Question: Which “polyreactivity (PSR sort gate)” value does the source give for “QVQLVESGGGLDQAGGSLRLSCAASGSIFYRNAMGWYRKAPGKERELVAAISWSGSRTYYADSVKVRFTISRDNAKNTVYLQMISLKPEDTAVYYCNRQYNQWIHYYYRMDYWGQGNQVTVSS” here?
Answer: high polyreactivity
